# T1: Human Topoisomerase I (Homo sapiens, UniProt P11387)
# T1 construct: purchased Topogen
# T1 sequence (P11387 1-765): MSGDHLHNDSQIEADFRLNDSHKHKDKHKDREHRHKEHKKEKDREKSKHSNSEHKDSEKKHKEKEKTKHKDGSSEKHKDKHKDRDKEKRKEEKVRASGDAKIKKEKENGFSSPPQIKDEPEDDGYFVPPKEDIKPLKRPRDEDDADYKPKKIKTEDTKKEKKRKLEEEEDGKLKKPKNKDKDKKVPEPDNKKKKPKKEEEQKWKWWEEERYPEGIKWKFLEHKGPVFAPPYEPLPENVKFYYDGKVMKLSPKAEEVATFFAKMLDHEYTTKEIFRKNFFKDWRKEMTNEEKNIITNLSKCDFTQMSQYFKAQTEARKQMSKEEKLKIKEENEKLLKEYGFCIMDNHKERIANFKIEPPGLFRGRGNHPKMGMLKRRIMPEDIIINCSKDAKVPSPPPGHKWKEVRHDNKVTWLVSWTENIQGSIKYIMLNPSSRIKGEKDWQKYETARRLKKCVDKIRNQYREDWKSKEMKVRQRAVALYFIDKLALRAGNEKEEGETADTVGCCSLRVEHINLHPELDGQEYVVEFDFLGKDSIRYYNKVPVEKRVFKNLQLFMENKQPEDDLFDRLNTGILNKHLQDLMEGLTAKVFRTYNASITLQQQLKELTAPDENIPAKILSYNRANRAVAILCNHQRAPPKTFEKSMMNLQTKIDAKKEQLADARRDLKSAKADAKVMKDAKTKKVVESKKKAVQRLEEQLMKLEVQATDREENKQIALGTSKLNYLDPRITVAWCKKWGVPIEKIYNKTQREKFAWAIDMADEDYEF
# B1: RG3: rabbit derived BBB targeting VL sdAb clone, SEQ. ID 44; ^99mTc(CO)3-labelled in Table 1 (antibody, listed as Oryctolagus cuniculus, V domains shown)
# VL: ELVMTQTPSPVSAAMGGTVSISCQSSKSVANNNELSWYQQKPGQPPKLLIYEASKLASGVPSRFKGSGSGTQFTLTISDVQCDDAATYYCLGDYYSSSDNAFGGGTEVVVK
# modifications: 99mTc(CO)3 radiolabel
# B2: RG22: rabbit derived BBB targeting VL sdAb clone, SEQ. ID 44 to 48 series; ^99mTc(CO)3-labelled in Table 1 (antibody, listed as Oryctolagus cuniculus, V domains shown)
# VL: ELVLTQTPASVEAAVGGTVTINCQASQSVYNNKNLAWYQQKPGQPPKLLIYRASTLASGVPSRFSGSGSGTQFTLTISGAQCDDAATYYCQGEFSCSSGDCIAFGGGTEVVVK
# modifications: 99mTc(CO)3 label
# B3: RG23: rabbit derived BBB targeting VL sdAb clone, SEQ. ID 44 to 48 series; ^99mTc(CO)3-labelled in Table 1 (antibody, listed as Oryctolagus cuniculus, V domains shown)
# VL: ELVMTQTPASVSEPVGGTVTIKCQASQSIGNALAWYQQKPGQPPKLLIYGASNLESGVPSRFKGSGSGTEFTLTISDLECADAATYYCQSYYYSSSSSYGSYAFGGGTEVVVK
# modifications: 99mTc(CO)3 label
# B4: A12: rabbit derived anti-cNHL VL sdAb clone, SEQ. ID. 1 (antibody, listed as Oryctolagus cuniculus, V domains shown)
# VL: ELVMTQTPSSVSAAVGGTATIDCQSTKSVYNNNALSWYQQKPGQPPKLLIYRASTLTSGVPSRFSGSGSGTQFTLTINDVQCDDAATYYCQGGISGSSDAPFGGGTEVVVK
# B5: C8: rabbit derived anti-cNHL VL sdAb clone, SEQ. ID. 2 (antibody, listed as Oryctolagus cuniculus, V domains shown)
# VL: ELVMTQTPSSVSAAVGGTVTINCRASEDIESYLAWYQQKPGQPPKRLIYGASNLASGVSSRFKGSGSGTDFTLTISDLECADAATYYCQCIVGGSTYGNVFGGGTELEIL
# B6: E1: rabbit derived anti-cNHL VL sdAb clone, SEQ. ID. 4 (antibody, listed as Oryctolagus cuniculus, V domains shown)
# VL: ELVMTQTPSPVSAAVGGTVTIACQSSQSVYSGTLLSWYQQKPGQSPKLLIHEASTLASGVPSRFKGSGSGTQFTLTISDLECADAATYYCLGGFDDDADNAFGGGTELEIL
# B7: E2: rabbit derived anti-cNHL VL sdAb clone, SEQ. ID. 5 (antibody, listed as Oryctolagus cuniculus, V domains shown)
# VL: ELDLTQTPPSLSASVGGTVTINCQASESISNYLAWYQQKPGQPPKLLIYGASNLESGVPSRFRGSGSGTEFTLTISDMKAEDAATFYCQSGYYTAGDLTFGAGTNVEIK
# B8: B12: rabbit derived anti-cNHL VL sdAb clone, SEQ. ID. 6 (antibody, listed as Oryctolagus cuniculus, V domains shown)
# VL: ELVLTQTPASVEAAVGGTVTIKCQASQSIGSYLAWYQQKPGQPPKLLIYGASTLASGVPSRFSGSRSDTQFSLTISDLECADAATYYCQGYYYSDSSSYVNTFGGGTEVVVK
# System: bEnd.3 cell monolayer
# Experiment: In vitro BEB model translocation of sdAbs (western blot)
# Type: in vitro ADME, mouse
# Conditions: 15 μg sdAb at apex, 90 min, WB
# Procedure: FIG. 16A 15 μg of each purified sdAb was added to the apex of the transwell and incubated for 90 min.
# FIG. 16B Following incubation period, all volumes were collected from the apex and the base and analysed by WB with anti-HA antibody.
# To determine the in vitro BEB translocation efficiency of the selected VL sdAb, 15 μg of each purified antibody was added to the apex of the transwell and incubated for 15 and 90 min. The incubation time and sdAb concentration were selected based on previous optimization assays (data not shown). Following incubation, the cells were washed once with PBS and three times with TB. Evaluation of the translocation efficiency of each VL sdAb was assessed by running […] of the recovered volume from the apex and the base on a 15% SDS-PAGE acrylamide gel followed by WB analysis with HRP-conjugated […] antibody at 1:3000 (Roche). As a positive control, 100 ng of each purified VL sdAb was used. The FC5 VHH was used as a positive control. The same procedure was performed to evaluate the BEB crossing properties of each purified rabbit serum, but the incubation was performed for 15 and 60 min and the detection was performed with goat-α anti-rabbit IgG-Fc specific HRP at 1:10,000. Chemiluminescence was detected using the Chemidoc XRS+System (Bio-rad).
row,Molecule,in vitro BEB translocation
1,B1,increased in vitro BEB-crossing efficiency
2,B2,increased in vitro BEB-crossing efficiency
3,B3,increased in vitro BEB-crossing efficiency

# Biological target: T1, Human Topoisomerase I
# Experiment: DNA Topo I activity assay (Human Topoisomerase I Assay Kit)
# Type: biochemical
# Conditions: 10 U Topo I, supercoiled DNA, agarose gel
# Procedure: FIG. 11—Cytotoxic effects of C5-DAB-SN-38. To determine the effect of C5-DAB-SN-38 on CLBL-1 and Jurkat cells, a cell viability assay was performed using the WST-1 reagent. 6×10^4 cells were seeded and treated with increasing amounts of compound. After 48 h treatment, cell viability was assessed. […] B) On the other hand, ADC had no effect on Jurkat cells, proving the specificity of the ADC. C5 was used as control. Best-fit EC50 values of each formulation were calculated using GraphPad Prism software (version 9.2.0, San Diego, CA, USA) using the log (inhibitor) vs response (variable slope) function. D) Effects of C5-DAB-SN-38 on DNA TopoI activity. To evaluate the effects of C5-DAB-SN-38 on DNA Topo I, we evaluated its activity using the Human Topoisomerase I Assay Kit. After incubation of C5-DAB-SN-38 with 1× reaction buffer and 10 U of Topo I for 1 h at 37° C., the supercoiled DNA was added. To stop the reaction, stop loading buffer was added. DNA TopoI activity was visualized by 1% agarose gel electrophoresis […] with ethidium bromide. Relaxed DNA indicated TopoI activity while supercoiled DNA indicated an inhibition. […] Relaxed DNA and supercoiled DNA were used as positive/negative controls. C5 and SN-38 were also used as controls.
# Topo I activity on VL-DAB-SN38 was determined using the Human Topoisomerase I Assay Kit (Topogen, CO, USA) according to the manufacturer's instructions. […]
row,Molecule,effect on DNA Topo I activity
1,"CCc1c2c(nc3ccc(O)cc13)-c1cc3c(c(=O)n1C2)COC(=O)[C@]3(O)CC [SN-38, reference compound]",inhibited

# System: CLBL-1 cell extracts
# Experiment: ELISA screening of anti-cNHL VL sdAb clones
# Type: binding, canine
# Conditions: clone supernatants, CLBL-1 extracts
# Procedure: After the phage display selection, in order to express and select the best anti-cNHL VL sdAbs, phagemid DNA derived from the in vivo output selection was cloned into a PT7-PL vector and transformed into an E. coli strain BL21. Then, individual clones were auto induced, and the supernatant tested in ELISA assays against CLBL-1 and Jurkat cell extracts. To select the best lead candidates, three parameters were evaluated: binding against cNHL, expression yields, and unspecific binding. […] After selection, to characterize the selected clones, the 43 best lead candidates were analysed by sanger sequencing (FIG. 6B). To get further insights of the enriched sequences during the in vivo phage display selection, we performed next generation sequencing (NGS) of the biopanning repertoires. NGS allows massive sequence analysis of the panning population, enabling a genomic assessment of the library diversity and frequency of each clone. Two samples were sequenced: biopanning from the CLBL-1 tumour models and initial immune VL sdAb cNHL library (FIG. 7). Upon bioinformatic analysis of the NGS data, we were able to determine the diversity of each sample and identify the most represented clones. A total of 34880 sequences were obtained for the biopanning from the CLBL-1 tumours. The NHL library obtained a total of 48864 sequences. The number of singletons, consisting of the sequences with a single occurrence, varied between samples, ranging from 76.8% in the library, and 33.3% in the in vivo biopanning from the CLBL-1. Through the comparison of the sequence prevalence between the biopannings and the library, we were able to verify that the number of occurrences in each sequence was higher in the biopanning clones. […] By comparing ELISA data, sanger sequencing and NGS analysis, the six best clones (A12, C8, C5, E1, E2, and B12) were produced and purified. Due to its binding characteristics and production properties, C5 sdAb clone was chosen to be thoroughly characterized and used in the development of the proposed ADC.
# To express and select anti-NHL-sdAbs, phagemid DNA encoding selected anti-cNHL sdAbs was cloned into PT7-PL (PT7-peptide leader) vector and transformed into E. coli strain BL21. Individual colonies were inoculated in 100 μl of Super Broth (SB) medium containing Overnight Express™ Autoinduction System (Novagen®) and 100 μg/ml of ampicillin and incubated overnight at 30° C. Next day, 40 μl of BugBuster (Roche) containing anti-protease cocktail-EDTA free inhibitors (Roche) were added and incubated for 30 min at 4° C. Then, plates were centrifuged at 1200 rpm and the supernatant was tested in ELISA assays. Three different conditions were assessed: binding to the sdAbs to the antigen, expression level and unspecific binding. After coating the wells with CLBL-1 cell extracts or Raji cell extracts for 1 h at 37° C., wells were blocked with 3% BSA in PBS. Then, wells were washed with PBS and clones were added and incubated for 1 h, at 37° C. Next, plates were washed and incubated with anti-HA HRP antibody (Roche). Finally, after 1 h incubation, plates were washed and ABTS (Roche) was added and optical density at 405 nm was measured at different time points. To evaluate the expression level, the same protocol was applied, excluding antigen coating.
# For unspecific binding, antigen was replaced by 3% BSA. Rabbit sera and anti-CD20 antibody were used as positive controls. BL21 cell extracts were used as negative controls. In the end, the ten best individual clones were sequenced at Eurofins company. Sequence analysis was performed using the Vector Nti software (Invitrogen). The antibody frameworks, CDRs and the amino acid numbering and sequences followed the rules described by Kabat et al. (1991) Sequences of proteins of immunological interest. Bethesda, MD, U.S. Dept. of Health and Human Services, Public Health Service, National Institutes of Health. […]
row,Molecule,ELISA signal against NHL cells
1,B4,best results
2,B5,best results
3,B6,best results
4,B7,best results
5,B8,best results
